Measurements: patent publication US8815528B2, “Methods and systems for detecting MHC class I binding peptides” (Beckman Coulter, Inc., priority 2002, dated 2014)

Experiments:
[1] = molecular target: HLA-A2m monomer in ternary complex with binding peptide Mart-1 26-35L (human); experiment: fluorimetric plate assay, avidin-coated plate, 40 min at room temperature; 1 µg/ml antibody, 0.5 µg/ml monomer
[2] = molecular target: HLA-A2m monomer in ternary complex with binding peptide Mart-1 26-35L (human); experiment: fluorimetric plate assay, avidin-coated plate, 40 min at room temperature; 0.5 µg/ml antibody, 0.5 µg/ml monomer
[3] = molecular target: STREPTACTIN® (mutated streptavidin molecule) (Streptomyces avidinii, UniProt P22629, E68V/S69T/V71R); conditions: biotin-binding site of STREPTACTIN; read-out: binding affinity (Kd); cited from earlier work
Sequence of STREPTACTIN® (mutated streptavidin molecule) (P22629 38-163 E68V/S69T/V71R): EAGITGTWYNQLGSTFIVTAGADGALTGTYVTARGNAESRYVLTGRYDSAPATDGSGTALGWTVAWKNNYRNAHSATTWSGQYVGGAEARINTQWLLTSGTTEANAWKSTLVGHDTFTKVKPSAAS

| Substance | Fluorescence units (FU) [1] [FU] | Fluorescence units (FU) [2] [FU] | Kd [3] [nM] |
| --- | --- | --- | --- |
| Anti-HLA-class I monoclonal antibody conjugated to FITC (clone: B9.12.1) | 600 | 300 |  |
| short peptide sequence binding the biotin-binding site of a mutated streptavidin molecule (STREPTACTIN) [streptagII] |  |  | ~1000 |
